Literature values, collected in publication PMC8322311.
Like-named read-outs stand apart in the source and are kept apart here.

Key:
SHH (Homo sapiens) [1] = molecular target: SHH (Homo sapiens) (UniProt Q15465)
SHH (Homo sapiens) [2] = molecular target: SHH (Homo sapiens) (UniProt Q15465); remark: listed apart in the source

Kd (SHH (Homo sapiens) [1])	Kd (SHH (Homo sapiens) [2])	Substance
6 nM		HHIP (from UniProt Q96QV1)
	32 nM	Glypican-3 (from UniProt P51654)
